Source: patent US20250011363A1, “OPTIMIZED SHORTENED PEPTIDE THAT BINDS TO ACETYLCHOLINE RECEPTOR, AND USE THEREOF” (SKINMED CO., LTD., priority 2021, published 2025)

What was measured:
[1] = biological target: acetylcholine receptor; assay: SPR, receptor on CM5 chip, peptide 10 µM
[2] = biological target: acetylcholine receptor; assay: SPR, AchR immobilised on chip, peptide at 10 uM

Binding affinity (RU) [1]	Binding affinity (RU) [2]	Binder
137 RU		KRLFCK [6mer-1-79]
	81 RU	KQYTK [5mer-590]
142 RU		RKVRRR [6mer-1-69]
125 RU		KRGVRK [6mer-1-96]
	62 RU	RLFRK [5mer-576]
	75 RU	KVVYR [5mer-583]
	68 RU	KLVSR [5mer-597]
	58 RU	KWQQR [5mer-595]
	66 RU	RWQRR [5mer-278]
	68 RU	KRYRR [5mer-287]
139 RU		KKVYLR [6mer-1-97]
142 RU		RKVQQK [6mer-1-94]
133 RU		KRVQQR [6mer-1-80]
	52 RU	KQVQR [5mer-284]
	74 RU	RSVSK [5mer-585]
	83 RU	RQYYR [5mer-293]
	84 RU	RVRSK [5mer-598]
142 RU		KKVRLR [6mer-1-74]
	82 RU	RVFTR [5mer-277]
126 RU		RRLQLK [6mer-1-76]
	57 RU	RGYYR [5mer-290]
	59 RU	KLVCK [5mer-292]
	56 RU	KLQQR [5mer-596]
	52 RU	RGRCR [5mer-295]
	64 RU	KVYTR [5mer-275]
	56 RU	RVVTK [5mer-279]
	50 RU	KQYSR [5mer-594]

Binding affinity (RU) [1]	Binding affinity (RU) [2]	Binder
	51 RU	KWVYK [5mer-283]
	77 RU	KLVTK [5mer-577]
	69 RU	KGFYR [5mer-575]
136 RU		KRWIRR [6mer-1-93]
	78 RU	KGRRR [5mer-586]
149 RU		KKQLRR [6mer-1-77]
125 RU		KKGISK [6mer-1-90]
	58 RU	KGLCR [5mer-589]
	56 RU	RWLCR [5mer-592]
	58 RU	RGFLK [5mer-281]
142 RU		RRGQTK [6mer-1-84]
	55 RU	KWISK [5mer-296]
139 RU		RRQYQK [6mer-1-75]
121 RU		KRWICK [6mer-1-88]
139 RU		KKQVYK [6mer-1-87]
146 RU		RRSFLR [6mer-1-83]
	76 RU	KQIQK [5mer-584]
	71 RU	RWFQK [5mer-286]
142 RU		KKWQTK [6mer-1-95]
	75 RU	KSIYR [5mer-298]
142 RU		RKQRCK [6mer-1-89]
121 RU		KRWFYK [6mer-1-71]
145 RU		KKRVSK [6mer-1-78]
	65 RU	KGVLR [5mer-581]
148 RU		RRWQLR [6mer-1-81]
123 RU		KKVLYR [6mer-1-82]
142 RU		KKQQQR [6mer-1-73]

Binding affinity (RU) [1]	Binding affinity (RU) [2]	Binder
	87 RU	RRQYR [5mer-289]
	61 RU	RVYTK [5mer-591]
	62 RU	RQVRK [5mer-274]
139 RU		RKVQLK [6mer-1-72]
121 RU		RKRQCK [6mer-1-85]
	66 RU	RVITR [5mer-587]
	77 RU	KQYLK [5mer-593]
	72 RU	RWFTR [5mer-291]
142 RU		KKWRQK [6mer-1-86]
131 RU		RKQQCK [6mer-1-91]
	70 RU	RSLRR [5mer-276]
	65 RU	KSVLR [5mer-578]
	60 RU	RSFTR [5mer-588]
	53 RU	RSLYK [5mer-579]
	73 RU	KLILK [5mer-288]
153 RU		RRWRLK [6mer-1-92]
	77 RU	RVLTR [5mer-282]
	50 RU	KQYYK [5mer-294]
	59 RU	KGFTR [5mer-574]
	70 RU	RGYTR [5mer-580]
	53 RU	KWILK [5mer-280]
	81 RU	RSLRK [5mer-297]
139 RU		KKLLYR [6mer-1-70]
	75 RU	KGQLK [5mer-285]
	82 RU	RGICK [5mer-582]
